Measurements as given in patent US20170218430.

Tested on: methylarginine peptide (SEQ ID NO:1)

Row | Substance | demethylation of the peptide, read as gain of anti-RG signal on slot blot (6 hours, 30 C) | demethylation of the peptide, read as loss of anti-mRG signal on slot blot (20 hours, 22.5 C)
1 | TbJmJ1 fusion protein (MBP-JmJ1, Jumonji Fusion Protein 1) | giving a positive reaction with anti-RG in a dose-dependent manner | 
2 | TbJmJ2 fusion protein (MBP-JmJ2, Jumonji Fusion Protein 2) | giving a positive reaction with anti-RG in a dose-dependent manner | indicates a concentration-dependent decrease in the methylation status of the GmRG peptide
